The results in this text go back to patent EP1847600A1, “Specific protease for inactivation of human tumour necrosis factor-alpha” (Direvo Biotech AG, priority 2006, dated 2007).

For one assay, the target named is hTNFα (Homo sapiens, UniProt P01375). The experiment in a line: TNF-alpha dependent cell-based caspase assay (Caspase-Glo 3/7) on WEHI 13VAR cells. Also noted: species or system mouse. Conditions: 20 kDa PEG, protease 50 and 100 µg/ml, hTNFα 1 ng/ml, 4 h, 37 °C. As to the method:
(§1) • Figure 1: Mass spectrometric verification of the proteolytic cleavage site of TNF-alpha. TNF-alpha was digested at a concentration of 1 mg/ml with protease variant E for 1 h at 37 °C in PBS buffer. The short fragment of the cleavage reaction was isolated on a C18-reversed phase HPLC-column and the collected fraction electrosprayed into the orifice of the ion-trap mass spectrometer. • Figure 2: Deconvoluted mass spectrometric analysis. The small cleavage product has been isolated and the determined mass represents the first 32 amino acids of SEQ ID NO: 11, confirming the targeted cleavage site. • Figure 3: Inactivation of recombinant human TNF-alpha activity by a panel of variants in a cell-based caspase assay. […] Detection of hTNFα-induced caspase activation was measured by a luminescence based read-out. […] (A) depicts maximal detected inactivation of hTNFα; (B) depicts dose dependency of the effects of the hTNFα specific protease. • Figure 4: Effect of pegylation on activity. […] The activity of the resulting pegylated protease was assessed against a recombinant hTNFα (A) or by a caspase assay that measures levels of remaining TNF-alpha activity following digestion of the cytokine by the protease (B). […] Cleavage is assessed by following the changes in the fluorescent signal. […] Efficacy was determined by using a standard clinical scoring system for ankle joint inflammation. […]

The test system of the next assay is synthetic peptide. The experiment in a line: Activity assay of pegylated versus non-pegylated protease against a synthetic peptide (Fig. 4A). Type of assay: biochemical. The following applies: 20 kDa PEG; synthetic peptide / recombinant hTNFα. The procedure:
as §1

For assay [1], the system named is human TNF-alpha transgenic mouse model of arthritis. The assay can be described thus: Efficacy in human TNF-alpha transgenic mouse model of arthritis (Tg197). Type of assay: in vivo. Conditions: Tg197 mice, six weeks old, established disease; 50 mg/kg intraperitoneally three times per week for five weeks. The procedure:
as §1

Another assay deals with T1, transmembrane TNF-alpha (Homo sapiens, UniProt P01375, DEL77-88).
T1 construct: The transmembrane TNF induces apoptosis in these TNF-susceptible cells; expressed in transfected cells
T1 sequence (P01375 with tags, fused parts or gaps DEL77-88): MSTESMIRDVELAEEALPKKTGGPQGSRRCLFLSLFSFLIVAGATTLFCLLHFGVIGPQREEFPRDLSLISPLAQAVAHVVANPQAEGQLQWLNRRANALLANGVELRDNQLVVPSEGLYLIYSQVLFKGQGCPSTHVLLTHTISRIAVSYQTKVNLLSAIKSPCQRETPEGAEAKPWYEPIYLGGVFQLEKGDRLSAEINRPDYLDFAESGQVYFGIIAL
The assay can be described thus: Membrane-bound TNF-alpha assay: cell line expressing non-cleavable TNF plus reporter cells, apoptosis read-out. The assay is classed as cell-based. The following applies: incubation at different concentrations for 4 h, then reporter cell line added.

Chain of hTNFα (P01375 77-233 limits assumed): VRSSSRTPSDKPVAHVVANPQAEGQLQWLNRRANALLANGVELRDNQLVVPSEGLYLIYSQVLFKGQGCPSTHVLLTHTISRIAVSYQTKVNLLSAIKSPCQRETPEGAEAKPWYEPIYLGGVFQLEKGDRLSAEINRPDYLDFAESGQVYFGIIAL

B1: pegylated variant E: Variant E modified by chemical attachment of 20 kDa poly(ethyleneglycol) (conjugate)
chain: IVGGYDCEENSVPYHVSLNSGSNSTTICGGALINEQWVVTAGHCYAFFPADKSRIQVRLGVHSTGALEGNEQIINAAKIIRHPQYDWKTLNNDIMLIKLSSPAVINAHVSTISLPTAPPATGTKCLISGWGNSKDPYKPSSRADYPGEVQCLDAPVLSQTKCEASYPGKITSNMFCAGFLEGGKDSCQGDSGGPVVHNGQLQGVVSWGEGCAQKNKPGVYTNVYNYVEWIQDTIAANS
With B1, in the assay with hTNFα, the “remaining TNF-alpha activity after digestion, pegylated compared with non-pegylated variant (Fig. 4B)” value is recorded as “slight reduction in specific activity”. Besides, the “activity of pegylated protease compared with non-pegylated variant (Fig. 4A)” value with synthetic peptide was “slight reduction in specific activity”. Besides, the “clinical score for ankle joint inflammation (arthritis score 0 to 3)” value in assay [1] is “Efficacy of pegylated TNF-alpha specific protease variant E is demonstrated”.

B2: pegylated variant G: variant G pegylated with 20 kD methoxy-poly(ethyleneglycol) derivative on lysine residues (conjugate)
chain: IVGGYDCEENSVPYHVSLNSDSNSTTICGGALINEQWVVTAGHCYSFLPLDKSRIQVRLGVHSTGALEGNEQIINAAKIIRHPQYDWKTLNNDIMLIKLSSPAVINAHVSTISLPTAPPATGTKCLISGWGNSKDPYKPSSGPSTADYPGEVQCLDAPVLSQTKCEASYPGKITSNMFCAGFLEGGKDSCQGDSGGPVVHNGQLQGVVSWGEGCAQKNKPGVYTNVYNYVEWIQDTIAANS
B2: in the assay with transmembrane TNF-alpha, the “inactivation of transmembrane TNF-alpha (inhibition of apoptosis of reporter cells)” value is given as “do not inhibit apoptosis”.
